The text below walks through data of the nanobody polyreactivity screen of Harvey et al. (2022).

A short description of this series: yeast display, Sf9 membrane polyspecificity reagent, FACS + sequencing; frameworks hold sequencing errors. A digest of the protocol:
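A nanobody's polyreactivity label depends on the gate it was sorted from. Yeast display cells were stained with 10% biotinylated, detergent-solubilized Sf9 membrane reagent for 1 hour at 4 °C, enriched on streptavidin microbeads and sorted by FACS. The low and high (top ~1%) gates were set on anti-HA fluorescence for expression and streptavidin fluorescence for reagent binding.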
Turning to “QVQLVESVGGLVQAGGSLRLSCAASGITFWKYTMGWYRQAPGKERELVAAITGRGGSTYYADSVKGRFTISRDNAKNTVYLQMNSLKPEDTAVYYCAADPYHLQTRFSGLAEFYYWGQGTQVTVSS”, the “polyreactivity (PSR sort gate)” value was “low polyreactivity”.
Turning to “QVQLVESVGGLVQAGGSLRLSCAASGITFYKYAMGWYRQAPGKERELVASIDRVGITNYADSVKGRFTISRDNAKNTVYLQMNSLKPEDTAVFYCNADYYRYYSITYGGDYWGQGTQVTVSS”, the “polyreactivity (PSR sort gate)” value is reported as “high polyreactivity”.
Regarding “QVQLVESVGGLVQAGGSLRLSCAASGITFYWYAMGWYRQAPGKERELVASITGNGGGTSYADSVKGRFTISRDNAKNTVYLQMNSLKPEDTAVYYCNTSVGGKEYDSWGQGTQVTVSS”, the “polyreactivity (PSR sort gate)” value is “low polyreactivity”.
On to “QVQLVESVGGLVQAGGSLRLSCAASGLIFFGNTMGWYRQAPGKDRELVAAISKRGTTYYADSVKGRFKISRDNAKNTVYLQMNSLKPEDTAVYYCAAGGTFFHRLDYYYRSDYWGQGTQVTVSS”, for which the “polyreactivity (PSR sort gate)” value was “high polyreactivity”.
As to “QVQLVESVGGLVQAGGSLRLSCAASGLILRFYAMVWYRQAPGKERELVAAISRNGGSTYYADSVKGRFTISRDNAKNTVYLQMNSLKPEDTAVYYCAVEYYVSWKLDYWGQGTQVTVSS”, the “polyreactivity (PSR sort gate)” value is “high polyreactivity”.
The result for “QVQLVESVGGLVQAGGSLRLSCAASGRIFEVYVMGWYRQAPGKERELVAAISTGGSTYYADSVKGRFTISRDNAKNTVYLQMNSLKPEDTAVYYCAARKTRRYGSGHDYWGQGTQVTVSS” reads “high polyreactivity”; that for “QVQLVESVGGLVQAGGSLRLSCAASGRIFHRYTMGWYRQAPGKEREFVAAITTRAGSTYYADSVKGRFTISRDNAKNTVYLQMNSLKPEDTAVYYCNIRRHSLYGGTTTRYDYWGQGTQVTVSS”, “high polyreactivity”.
Then “QVQLVESVGGLVQAGGSLRLSCAASGRIFLVYVMGWYRQAPGKERELVAAISASDGSTYYADSVKGRFTISRDNAKNTVYLQMNSLKPEDTAVYYCAEWGYSLDSNSYRELNYWGQGTQVTVSS”, with “low polyreactivity”.
Regarding “QVQLVESVGGLVQAGGSLRLSCAASGRTFRTYTMGWYRQAPGKERGLVAAITSTGSTYYADSVKGRFTISRDNAKNTVYLQMNSLKPEDTAVYYCNVVRRLRPYRGTGPNLEYYYWGQGTQVTVSS”, the “polyreactivity (PSR sort gate)” value is given as “high polyreactivity”.
Consider “QVQLVESVGGLVQAGGSLRLSCAASGRTFRYYAMGWYRQAPGKERELVAAISKTGGSTYYADSVKGRFTISRDNAKNTVYLQMNSLKPEDTAVYYCAAQSGWGYSTYYYWGQGTQVTVSS”, for which the “polyreactivity (PSR sort gate)” value is “high polyreactivity”.
Then “QVQLVESVGGLVQAGGSLRLSCAASGRTFVLNTMGWYRQAPGKERELVAAISKSGGSTYYADSVKGRFTISRDNAKNTVYLQMNSLKPEDTAVYYCAARTRQLEYNSWGEGTQVTVSS”, with “high polyreactivity”; and “QVQLVESVGGLVQAGGSLRLSCAASGRTFVVYAMGWYRQEPGKERELVAAIRVSDGSTYYADSEKGRFTISREISKNTVYLQMNSLNPEDTAVYYCNAESFRGFYYWGQGTQVTVSS”, with “high polyreactivity”; and “QVQLVESVGGLVQAGGSLRLSCAASGRTIRWYAMGWYRQAPGKERELVAAITFRGGRTYYADSVKGRFTISRDNEKNTVYLQMNSMKPEDTAVYYCNAVTYSSPYRFDYWGQGTQVTLSS”, with “low polyreactivity”.
The result for “QVQLVESVGGLVQAGGSLRLSCAASGRTISRNAMGWYRQAPGKERELVAAISASGGRTYYADSVKGRFTISRDNAKNTVYLQMKSLKPEDTEVYFCAASTTGYRYYDYCGQGTQVTVSS” reads “high polyreactivity”; that for “QVQLVESVGGLVQAGGSLRLSCAASGSIFEYYAMGWYRQAPGKERELVAAITRSGGSTYYADSVKGRFTISRDNAKNTVYLQMNSLKPEDTAVYYCAVRGYSSYTYDEYYVGYDYWGQGTQVTVSS”, “low polyreactivity”.
The result for “QVQLVESVGGLVQAGGSLRLSCAASGSIFRVYAMGWYRQAPGKERELVATISGSAGRTYYADSVKGRFTISRDNAKNTVYLQMNSLKPEDTAVYYCAARWYKEYYWGQGTQVTVSS” reads “high polyreactivity”.
“QVQLVESVGGLVQAGGSLRLSCAASGSIFSPYAMGWYRQAPGKERELVAGISRDGSTYYADSVKGRFTISRDNAKNTVYLQMNSMKPEDTAVYYCAATEFRYFEGGAYFEGYYWGQGTQVTVSS”: the “polyreactivity (PSR sort gate)” value is “low polyreactivity”.
As to “QVQLVESVGGLVQAGGSLRLSCAASGSIFSRNAMGWYRQAPGKERELVAAIRSTVSTYYADSVKGRFTISRDNAKNTVYLQMNSLKPEDTAVYYCATVTHVSPNKYYYWGQGTQVTVSS”, the “polyreactivity (PSR sort gate)” value is “high polyreactivity”.
Then “QVQLVESVGGLVQAGGSLRLSCAASGSIFYNYAMGWYRQAPGKERELVAAISSNGGSTYYADSVKGRFTISRDIAKNTVYLQMNSLKPEDTAVYYCAARYWYPYWYRYSAYDYWGQGTQVTVSS”, with “high polyreactivity”; and “QVQLVESVGGLVQAGGSLRLSCAASGSIYRSYTMGWYRQAPRKEREFVAAITKRGGSTYYADSVKGRFTISRDNAKNTVYLQMISLKPEDTAVYYCAAVAGHYYYFRELGYWGQGTQVTVSS”, with “high polyreactivity”.
The result for “QVQLVESVGGLVQAGGSLRLSCAASGSTFAGYAMGWYRQAPGKERELVAAISGGRTYYADSVKGRFTISRDNAKNTVYLQMNSLQPEDTAVYYCAKRYFYYTAYNAYGYWGQGTQVTVSS” reads “high polyreactivity”; that for “QVQLVESVGGLVQAGGSLRLSCAASGSTFGTYAMGWYRQAPGKVSELVAAISNSGGSTYYADSVKGRFTISRDNAKNTVYLQMNSLKPEDTAVYYCNTDGLVRNGPFFSWGQGTQVTVSS”, “low polyreactivity”.
The result for “QVQLVESVGGLVQAGGSLRLSCAASGSTFGYNAMGWYRKAPGKERELVAGITSSGGSTYYADSVKGRFTISRDNAKNTVYLQMNSLKPEDTAVYYCAKAFYRHSSPNNSEYWGQGTQVTVSS” reads “low polyreactivity”; that for “QVQLVESVGGLVQAGGSLRLSCAASGSTIGWNAMGWYRQAPGKERELVAAISSSGGSTNYADSVKGRFTISRDNAKNTVYLQMNCLKPEDTAVYYCAKGRRPGYGYGYWGHGTQVTVSS”, “low polyreactivity”; that for “QVQLVESVGGLVQAGGSLRLSCAASGSTSRFYDMGSYSQAPGKERELVAAITQSGGSTRYADSVKGRFTISRENAKNTVYLQLNSLKPEDTAVNYCAARVRGYSVTRTKPASIGGGSWGQGTQVTVSS”, “high polyreactivity”.
As to “QVQLVESVGGLVQAGGSLRLSCAASGSTSYDYAMGWNRQAPGKERELVAAISGSSSTTYYADSVKGRFTISRDNAKNTVYLQMNSLKPEDTAVYYCNAVTTSGSGYGYWGQGTQVTVSS”, the “polyreactivity (PSR sort gate)” value is “low polyreactivity”.
The result for “QVQLVESVGGLVQAGGSLRLSCAASGVIFYFYTMGWSRQAPGKERELVAGITWSGDSTYYADSVKGRFTISRDNAKNTVYLQMNSLTPEDTAVYYCAAGFDFGTRVSKGYDYWGHGTQVTVSS” reads “low polyreactivity”; that for “QVQLVESVGGLVQAGGSLRLSCAASVFIFRSYAMGWYRQAPGKERELVASISRRGASTYYADSVKGRFTISRDNAKNTVYLQMNSLKPEDTAVYYCNADGLRGFYTGAYDYDYWGQGTQVTVSS”, “high polyreactivity”.
Take “QVQLVESVGGLVQAGGSLRLSCAASVNIFITNAMGWYRQAPGKERELVADISFSGGSTYYADSVKGRFTISRDTAKNTVYLQMNSLIPEDTAVYYCAARALASVSAHKYDYWGQGTQVTVSS”: the “polyreactivity (PSR sort gate)” value is recorded as “low polyreactivity”.
With “QVQLVESVGGLVQAGGSLRLSCAASVRTCRSNAMGWYRKAPGKEMEFVAAISISGTRTNYADSVKGRFTISRDNAKITVYLQMNSLKPEDTAVYYCARRYQIYDFFYHDLYDYWGQGTQVTVSS”, the “polyreactivity (PSR sort gate)” value is “low polyreactivity”.
